Source: patent US20180155451A1 (published 2018)

Target: T1, FcγRIIa H (human, UniProt P12318 34-217)
T1 construct: extracellular domain; also called FcgRIIa H type; 2aH; not shown: His tag at the C terminus
T1 sequence (looked up): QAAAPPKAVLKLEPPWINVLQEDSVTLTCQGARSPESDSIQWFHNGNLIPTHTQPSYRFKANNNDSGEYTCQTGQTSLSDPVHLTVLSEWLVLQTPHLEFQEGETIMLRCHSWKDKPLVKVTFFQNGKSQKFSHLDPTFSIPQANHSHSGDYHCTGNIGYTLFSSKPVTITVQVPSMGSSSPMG
Assay: SPR Biacore, relative binding

B1: GpH7-B3 variant I336_08L/GpL16-k0 (antibody, human IgG1, kappa)
heavy: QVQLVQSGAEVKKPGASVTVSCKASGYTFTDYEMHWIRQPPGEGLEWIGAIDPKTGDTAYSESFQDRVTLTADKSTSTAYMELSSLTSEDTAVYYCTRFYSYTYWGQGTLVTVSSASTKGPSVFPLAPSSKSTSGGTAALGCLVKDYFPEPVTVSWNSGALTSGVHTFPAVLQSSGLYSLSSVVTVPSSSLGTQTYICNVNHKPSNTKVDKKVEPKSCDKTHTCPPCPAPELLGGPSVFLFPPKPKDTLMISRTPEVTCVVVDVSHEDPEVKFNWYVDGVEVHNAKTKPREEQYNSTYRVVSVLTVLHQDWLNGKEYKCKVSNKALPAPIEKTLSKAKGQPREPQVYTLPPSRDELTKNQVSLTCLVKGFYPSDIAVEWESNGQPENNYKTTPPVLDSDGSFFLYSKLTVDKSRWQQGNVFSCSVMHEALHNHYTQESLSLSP
light: DIVMTQSPLSLPVTPGEPASISCQASESLVHSNRNTYLHWYLQKPGQSPQLLIYKVSNRFSGVPDRFSGSGSGTDFTLKISRVEAEDVGVYYCSQNTHVPPTFGQGTKVEIERTVAAPSVFIFPPSDEQLKSGTASVVCLLNNFYPREAKVQWKVDNALQSGNSQESVTEQDSKDSTYSLSSTLTLSKADYEKHKVYACEVTHQGLSSPVTKSFNRGEC
notes: also called Ho Ab I336_08L
  Ho/Con_2aH: 101 % of GpH7-B3/GpL16-k0 (=100)

B2: GpH7-B3 variant I332_19Q/GpL16-k0 (antibody, human IgG1, kappa)
heavy: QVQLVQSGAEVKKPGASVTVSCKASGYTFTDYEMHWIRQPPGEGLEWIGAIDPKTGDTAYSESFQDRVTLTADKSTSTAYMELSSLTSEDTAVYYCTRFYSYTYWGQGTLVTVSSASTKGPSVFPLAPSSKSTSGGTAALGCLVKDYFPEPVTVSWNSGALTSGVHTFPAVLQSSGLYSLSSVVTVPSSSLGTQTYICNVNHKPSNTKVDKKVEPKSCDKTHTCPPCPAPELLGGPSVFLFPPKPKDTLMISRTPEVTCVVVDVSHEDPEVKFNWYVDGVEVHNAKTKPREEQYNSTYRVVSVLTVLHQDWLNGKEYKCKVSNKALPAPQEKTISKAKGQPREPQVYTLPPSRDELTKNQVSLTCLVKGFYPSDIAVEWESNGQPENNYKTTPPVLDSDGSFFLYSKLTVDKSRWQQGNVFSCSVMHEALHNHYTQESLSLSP
light: DIVMTQSPLSLPVTPGEPASISCQASESLVHSNRNTYLHWYLQKPGQSPQLLIYKVSNRFSGVPDRFSGSGSGTDFTLKISRVEAEDVGVYYCSQNTHVPPTFGQGTKVEIERTVAAPSVFIFPPSDEQLKSGTASVVCLLNNFYPREAKVQWKVDNALQSGNSQESVTEQDSKDSTYSLSSTLTLSKADYEKHKVYACEVTHQGLSSPVTKSFNRGEC
notes: also called Ho Ab I332_19Q
  Ho/Con_2aH: 114 % of GpH7-B3/GpL16-k0 (=100)

B3: GpH7-B3 variant H268_18N/GpL16-k0 (antibody, human IgG1, kappa)
heavy: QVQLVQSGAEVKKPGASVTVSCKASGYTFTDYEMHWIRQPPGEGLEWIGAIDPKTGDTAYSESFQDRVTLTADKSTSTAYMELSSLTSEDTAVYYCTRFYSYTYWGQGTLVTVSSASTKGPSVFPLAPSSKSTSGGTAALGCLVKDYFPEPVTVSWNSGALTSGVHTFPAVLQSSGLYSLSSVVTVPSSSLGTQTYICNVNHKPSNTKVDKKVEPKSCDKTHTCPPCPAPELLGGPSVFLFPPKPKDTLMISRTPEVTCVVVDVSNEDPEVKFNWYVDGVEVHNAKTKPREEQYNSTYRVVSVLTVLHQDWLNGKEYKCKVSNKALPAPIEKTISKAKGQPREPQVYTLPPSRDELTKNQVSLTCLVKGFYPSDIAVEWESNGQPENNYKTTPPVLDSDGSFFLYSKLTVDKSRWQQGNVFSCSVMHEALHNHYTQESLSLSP
light: DIVMTQSPLSLPVTPGEPASISCQASESLVHSNRNTYLHWYLQKPGQSPQLLIYKVSNRFSGVPDRFSGSGSGTDFTLKISRVEAEDVGVYYCSQNTHVPPTFGQGTKVEIERTVAAPSVFIFPPSDEQLKSGTASVVCLLNNFYPREAKVQWKVDNALQSGNSQESVTEQDSKDSTYSLSSTLTLSKADYEKHKVYACEVTHQGLSSPVTKSFNRGEC
notes: also called Ho Ab H268_18N
  Ho/Con_2aH: 110 % of GpH7-B3/GpL16-k0 (=100)

B4: GpH7-B3 variant I332_15Y/GpL16-k0 (antibody, human IgG1, kappa)
heavy: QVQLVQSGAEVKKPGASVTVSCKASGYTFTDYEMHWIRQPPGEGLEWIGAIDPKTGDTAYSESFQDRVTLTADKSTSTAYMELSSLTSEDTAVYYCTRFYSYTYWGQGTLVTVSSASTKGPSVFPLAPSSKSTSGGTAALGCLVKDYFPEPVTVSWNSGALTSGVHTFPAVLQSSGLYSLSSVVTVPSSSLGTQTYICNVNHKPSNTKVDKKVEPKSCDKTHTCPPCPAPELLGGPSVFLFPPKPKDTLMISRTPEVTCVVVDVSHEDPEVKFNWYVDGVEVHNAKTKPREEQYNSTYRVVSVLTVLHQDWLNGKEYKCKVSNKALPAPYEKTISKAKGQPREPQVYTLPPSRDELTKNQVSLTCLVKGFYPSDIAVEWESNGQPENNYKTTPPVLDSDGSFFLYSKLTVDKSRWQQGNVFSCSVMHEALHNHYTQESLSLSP
light: DIVMTQSPLSLPVTPGEPASISCQASESLVHSNRNTYLHWYLQKPGQSPQLLIYKVSNRFSGVPDRFSGSGSGTDFTLKISRVEAEDVGVYYCSQNTHVPPTFGQGTKVEIERTVAAPSVFIFPPSDEQLKSGTASVVCLLNNFYPREAKVQWKVDNALQSGNSQESVTEQDSKDSTYSLSSTLTLSKADYEKHKVYACEVTHQGLSSPVTKSFNRGEC
notes: also called Ho Ab I332_15Y
  Ho/Con_2aH: 126 % of GpH7-B3/GpL16-k0 (=100)

B5: GpH7-B3 variant I332_14T/GpL16-k0 (antibody, human IgG1, kappa)
heavy: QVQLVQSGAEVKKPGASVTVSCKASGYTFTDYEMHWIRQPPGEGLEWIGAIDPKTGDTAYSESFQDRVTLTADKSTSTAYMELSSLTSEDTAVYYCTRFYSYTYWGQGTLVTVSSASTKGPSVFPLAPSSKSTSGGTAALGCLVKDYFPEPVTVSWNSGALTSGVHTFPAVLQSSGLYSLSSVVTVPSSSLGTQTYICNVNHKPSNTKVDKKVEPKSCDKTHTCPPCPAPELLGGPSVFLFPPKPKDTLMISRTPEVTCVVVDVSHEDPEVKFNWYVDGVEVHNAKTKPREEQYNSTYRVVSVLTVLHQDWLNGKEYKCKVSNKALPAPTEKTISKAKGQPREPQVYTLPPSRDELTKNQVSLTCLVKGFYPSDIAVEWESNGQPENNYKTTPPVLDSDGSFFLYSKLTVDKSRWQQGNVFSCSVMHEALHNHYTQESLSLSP
light: DIVMTQSPLSLPVTPGEPASISCQASESLVHSNRNTYLHWYLQKPGQSPQLLIYKVSNRFSGVPDRFSGSGSGTDFTLKISRVEAEDVGVYYCSQNTHVPPTFGQGTKVEIERTVAAPSVFIFPPSDEQLKSGTASVVCLLNNFYPREAKVQWKVDNALQSGNSQESVTEQDSKDSTYSLSSTLTLSKADYEKHKVYACEVTHQGLSSPVTKSFNRGEC
notes: also called Ho Ab I332_14T
  Ho/Con_2aH: 125 % of GpH7-B3/GpL16-k0 (=100)

B6: GpH7-B3 variant I332_16H/GpL16-k0 (antibody, human IgG1, kappa)
heavy: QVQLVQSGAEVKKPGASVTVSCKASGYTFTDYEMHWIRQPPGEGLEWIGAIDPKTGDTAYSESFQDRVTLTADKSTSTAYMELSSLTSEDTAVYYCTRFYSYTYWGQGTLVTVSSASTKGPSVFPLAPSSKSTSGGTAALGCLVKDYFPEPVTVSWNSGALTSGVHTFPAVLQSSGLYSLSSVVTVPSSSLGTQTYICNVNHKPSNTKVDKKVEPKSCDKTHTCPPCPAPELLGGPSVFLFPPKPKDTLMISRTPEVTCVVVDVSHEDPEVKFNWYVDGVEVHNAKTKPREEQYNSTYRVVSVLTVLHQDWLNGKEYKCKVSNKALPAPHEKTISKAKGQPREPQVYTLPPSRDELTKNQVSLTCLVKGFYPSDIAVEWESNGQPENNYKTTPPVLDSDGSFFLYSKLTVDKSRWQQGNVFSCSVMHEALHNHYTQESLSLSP
light: DIVMTQSPLSLPVTPGEPASISCQASESLVHSNRNTYLHWYLQKPGQSPQLLIYKVSNRFSGVPDRFSGSGSGTDFTLKISRVEAEDVGVYYCSQNTHVPPTFGQGTKVEIERTVAAPSVFIFPPSDEQLKSGTASVVCLLNNFYPREAKVQWKVDNALQSGNSQESVTEQDSKDSTYSLSSTLTLSKADYEKHKVYACEVTHQGLSSPVTKSFNRGEC
notes: also called Ho Ab I332_16H
  Ho/Con_2aH: 119 % of GpH7-B3/GpL16-k0 (=100)

B7: GpH7-B3 variant I332_09D/GpL16-k0 (antibody, human IgG1, kappa)
heavy: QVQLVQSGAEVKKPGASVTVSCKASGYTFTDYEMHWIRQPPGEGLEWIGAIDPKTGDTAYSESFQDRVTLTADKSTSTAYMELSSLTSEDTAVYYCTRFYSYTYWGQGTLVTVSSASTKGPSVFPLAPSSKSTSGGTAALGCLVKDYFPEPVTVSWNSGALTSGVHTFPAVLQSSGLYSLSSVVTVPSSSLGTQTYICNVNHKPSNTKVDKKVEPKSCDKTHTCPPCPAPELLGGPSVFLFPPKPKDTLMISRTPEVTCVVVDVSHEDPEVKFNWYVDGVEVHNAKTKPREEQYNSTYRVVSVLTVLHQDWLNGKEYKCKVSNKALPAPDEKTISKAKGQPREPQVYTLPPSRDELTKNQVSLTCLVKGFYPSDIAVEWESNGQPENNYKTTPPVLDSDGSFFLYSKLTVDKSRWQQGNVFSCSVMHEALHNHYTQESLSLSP
light: DIVMTQSPLSLPVTPGEPASISCQASESLVHSNRNTYLHWYLQKPGQSPQLLIYKVSNRFSGVPDRFSGSGSGTDFTLKISRVEAEDVGVYYCSQNTHVPPTFGQGTKVEIERTVAAPSVFIFPPSDEQLKSGTASVVCLLNNFYPREAKVQWKVDNALQSGNSQESVTEQDSKDSTYSLSSTLTLSKADYEKHKVYACEVTHQGLSSPVTKSFNRGEC
notes: also called Ho Ab I332_09D
  Ho/Con_2aH: 130 % of GpH7-B3/GpL16-k0 (=100)

B8: GpH7-B3 variant G236_07I/GpL16-k0 (antibody, human IgG1, kappa)
heavy: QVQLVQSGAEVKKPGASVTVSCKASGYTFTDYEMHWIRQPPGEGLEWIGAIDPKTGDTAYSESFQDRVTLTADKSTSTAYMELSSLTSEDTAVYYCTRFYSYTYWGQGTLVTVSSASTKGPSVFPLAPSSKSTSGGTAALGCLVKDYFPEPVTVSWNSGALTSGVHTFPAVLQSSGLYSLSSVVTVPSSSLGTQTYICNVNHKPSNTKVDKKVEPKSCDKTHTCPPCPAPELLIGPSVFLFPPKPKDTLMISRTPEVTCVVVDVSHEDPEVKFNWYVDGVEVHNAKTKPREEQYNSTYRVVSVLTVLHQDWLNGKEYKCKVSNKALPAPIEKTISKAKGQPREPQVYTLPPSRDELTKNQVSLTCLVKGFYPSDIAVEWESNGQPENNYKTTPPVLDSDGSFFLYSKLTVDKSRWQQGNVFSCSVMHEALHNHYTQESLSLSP
light: DIVMTQSPLSLPVTPGEPASISCQASESLVHSNRNTYLHWYLQKPGQSPQLLIYKVSNRFSGVPDRFSGSGSGTDFTLKISRVEAEDVGVYYCSQNTHVPPTFGQGTKVEIERTVAAPSVFIFPPSDEQLKSGTASVVCLLNNFYPREAKVQWKVDNALQSGNSQESVTEQDSKDSTYSLSSTLTLSKADYEKHKVYACEVTHQGLSSPVTKSFNRGEC
notes: also called Ho Ab G236_07I
  Ho/Con_2aH: 101 % of GpH7-B3/GpL16-k0 (=100)

B9: GpH7-B3 variant H268_10E/GpL16-k0 (antibody, human IgG1, kappa)
heavy: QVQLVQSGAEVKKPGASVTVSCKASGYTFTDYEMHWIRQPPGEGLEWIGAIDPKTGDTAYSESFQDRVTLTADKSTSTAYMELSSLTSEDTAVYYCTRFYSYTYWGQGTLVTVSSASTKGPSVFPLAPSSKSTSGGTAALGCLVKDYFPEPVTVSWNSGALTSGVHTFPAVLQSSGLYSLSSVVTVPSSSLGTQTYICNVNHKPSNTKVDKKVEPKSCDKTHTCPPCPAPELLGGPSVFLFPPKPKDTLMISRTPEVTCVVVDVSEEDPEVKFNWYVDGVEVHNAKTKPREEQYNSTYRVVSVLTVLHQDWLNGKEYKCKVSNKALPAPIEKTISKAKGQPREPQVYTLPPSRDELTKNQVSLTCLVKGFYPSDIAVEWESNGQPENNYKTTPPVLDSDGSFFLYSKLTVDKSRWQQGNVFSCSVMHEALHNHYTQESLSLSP
light: DIVMTQSPLSLPVTPGEPASISCQASESLVHSNRNTYLHWYLQKPGQSPQLLIYKVSNRFSGVPDRFSGSGSGTDFTLKISRVEAEDVGVYYCSQNTHVPPTFGQGTKVEIERTVAAPSVFIFPPSDEQLKSGTASVVCLLNNFYPREAKVQWKVDNALQSGNSQESVTEQDSKDSTYSLSSTLTLSKADYEKHKVYACEVTHQGLSSPVTKSFNRGEC
notes: also called Ho Ab H268_10E
  Ho/Con_2aH: 126 % of GpH7-B3/GpL16-k0 (=100)

B10: GpH7-B3 variant H268_09D/GpL16-k0 (antibody, human IgG1, kappa)
heavy: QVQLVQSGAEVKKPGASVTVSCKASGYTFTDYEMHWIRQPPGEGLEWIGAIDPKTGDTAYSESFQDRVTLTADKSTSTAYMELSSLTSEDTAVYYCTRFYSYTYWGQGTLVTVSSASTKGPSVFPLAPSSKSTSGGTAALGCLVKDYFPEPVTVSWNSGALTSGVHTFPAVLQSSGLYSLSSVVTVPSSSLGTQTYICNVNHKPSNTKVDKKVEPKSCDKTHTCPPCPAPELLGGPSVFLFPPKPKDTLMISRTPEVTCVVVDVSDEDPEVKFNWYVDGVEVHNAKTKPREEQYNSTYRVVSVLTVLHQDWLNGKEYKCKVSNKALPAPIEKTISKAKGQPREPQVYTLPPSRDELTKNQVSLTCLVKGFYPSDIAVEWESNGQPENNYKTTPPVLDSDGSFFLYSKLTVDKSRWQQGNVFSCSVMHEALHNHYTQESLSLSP
light: DIVMTQSPLSLPVTPGEPASISCQASESLVHSNRNTYLHWYLQKPGQSPQLLIYKVSNRFSGVPDRFSGSGSGTDFTLKISRVEAEDVGVYYCSQNTHVPPTFGQGTKVEIERTVAAPSVFIFPPSDEQLKSGTASVVCLLNNFYPREAKVQWKVDNALQSGNSQESVTEQDSKDSTYSLSSTLTLSKADYEKHKVYACEVTHQGLSSPVTKSFNRGEC
notes: also called Ho Ab H268_09D
  Ho/Con_2aH: 136 % of GpH7-B3/GpL16-k0 (=100)

B11: GpH7-B3 variant I332_13S/GpL16-k0 (antibody, human IgG1, kappa)
heavy: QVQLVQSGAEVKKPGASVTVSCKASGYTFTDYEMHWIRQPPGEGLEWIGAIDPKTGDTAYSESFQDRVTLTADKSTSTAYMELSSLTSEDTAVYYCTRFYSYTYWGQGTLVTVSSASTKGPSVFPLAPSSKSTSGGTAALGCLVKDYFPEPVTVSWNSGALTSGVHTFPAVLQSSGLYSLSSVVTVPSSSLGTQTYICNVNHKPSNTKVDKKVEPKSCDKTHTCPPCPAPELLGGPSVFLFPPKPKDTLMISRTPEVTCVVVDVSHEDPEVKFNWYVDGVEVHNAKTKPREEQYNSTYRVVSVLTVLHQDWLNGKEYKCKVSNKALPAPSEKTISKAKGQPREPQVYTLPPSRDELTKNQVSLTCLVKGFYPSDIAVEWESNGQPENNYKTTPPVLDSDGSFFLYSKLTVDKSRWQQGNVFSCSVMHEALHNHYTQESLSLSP
light: DIVMTQSPLSLPVTPGEPASISCQASESLVHSNRNTYLHWYLQKPGQSPQLLIYKVSNRFSGVPDRFSGSGSGTDFTLKISRVEAEDVGVYYCSQNTHVPPTFGQGTKVEIERTVAAPSVFIFPPSDEQLKSGTASVVCLLNNFYPREAKVQWKVDNALQSGNSQESVTEQDSKDSTYSLSSTLTLSKADYEKHKVYACEVTHQGLSSPVTKSFNRGEC
notes: also called Ho Ab I332_13S
  Ho/Con_2aH: 121 % of GpH7-B3/GpL16-k0 (=100)
